Assay results published in article PMC3183090, “A Noncoding Point Mutation of Zeb1 Causes Multiple Developmental Malformations and Obesity in Twirler Mice”.
Positions count from the first letter of the chain named.

B1: Zeb1 c.58+181G (wild type) probe (dsDNA)
DNA 1: TGCTGGACTGGACCGTTATGTCTTACCTGC
DNA 2: GCAGGTAAGACATAACGGTCCAGTCCAGCA
B2: Zeb1 c.58+181A (Twirler) probe (dsDNA)
DNA 1: B1 DNA 1 with G15A
DNA 2: B1 DNA 2 with C16T
B3: mim-1 C-Myb site control (dsDNA)
DNA 1: GCTCTAAAAAACCGTTATAATGTACAGATATCTT
DNA 2: AAGATATCTGTACATTATAACGGTTTTTTAGAG

What was measured:
C-Myb [1] = molecular target: T1, C-Myb (mouse, UniProt P06876 1-636); test: EMSA; 20 ul reactions with EMSA Accessory Kit (Novagen), 6% DNA retardation gel; buffer composition, salt, pH and temperature not stated; conditions: protein: recombinant; tags: pET-41a(+) vector tags (Ni-NTA purified); blunt
C-Myb [2] = molecular target: T1, C-Myb; test: competition; unlabeled, 25- or 50-fold molar excess vs labeled N1; complete inhibition; 20 ul reactions with EMSA Accessory Kit (Novagen), 6% DNA retardation gel; buffer composition, salt, pH and temperature not stated; conditions: protein: recombinant; tags: pET-41a(+) vector tags (Ni-NTA purified); 5' overhang 1 nt on strand 1 as printed (S6 lacks the 3' C)

T1 sequence (P06876 whole entry): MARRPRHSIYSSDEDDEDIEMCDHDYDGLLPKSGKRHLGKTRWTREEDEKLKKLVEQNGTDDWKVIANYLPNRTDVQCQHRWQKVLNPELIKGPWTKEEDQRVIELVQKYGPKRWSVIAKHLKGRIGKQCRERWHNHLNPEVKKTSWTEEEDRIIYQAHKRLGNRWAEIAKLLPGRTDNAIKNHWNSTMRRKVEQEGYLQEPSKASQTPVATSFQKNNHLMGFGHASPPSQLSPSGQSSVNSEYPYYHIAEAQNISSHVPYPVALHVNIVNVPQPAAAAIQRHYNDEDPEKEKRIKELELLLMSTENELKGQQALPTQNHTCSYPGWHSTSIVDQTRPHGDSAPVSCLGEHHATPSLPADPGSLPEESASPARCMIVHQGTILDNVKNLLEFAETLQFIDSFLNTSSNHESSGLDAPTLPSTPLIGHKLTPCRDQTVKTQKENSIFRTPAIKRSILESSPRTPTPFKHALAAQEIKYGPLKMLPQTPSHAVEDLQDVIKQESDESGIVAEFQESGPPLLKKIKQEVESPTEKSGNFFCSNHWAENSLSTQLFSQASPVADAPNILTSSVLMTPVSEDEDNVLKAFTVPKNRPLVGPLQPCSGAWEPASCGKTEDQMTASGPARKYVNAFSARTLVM

Row | Binder | binding result (C-Myb [1]) | binding result (C-Myb [2])
1 | B1 | binds | –
2 | B2 | no binding | –
3 | B3 | – | binds
